Results from US20260209293A1 (Novo Nordisk, published 2026).
Blank lines part the entries; values can stand above or below the binder they belong to. *1 amine or outer side, *2 acyl side, *3 side chain or, on linkers, in order; H or OH if unused. Side-chain parts run from the residue outwards. The star is where a group is joined. C20 diacid = O=C(O)CCCCCCCCCCCCCCCCCCC(=O)*; C18 diacid = O=C(O)CCCCCCCCCCCCCCCCC(=O)*; γGlu = O=C(O)[C@H](CCC(=O)[*:2])N[*:1]

Legend:
[1] = molecular target: T1, human amylin-3(a) receptor (human, UniProt P30988 25-474; O60896 24-148); assay: cell-based or functional assay
T1 sequence (looked up) 1: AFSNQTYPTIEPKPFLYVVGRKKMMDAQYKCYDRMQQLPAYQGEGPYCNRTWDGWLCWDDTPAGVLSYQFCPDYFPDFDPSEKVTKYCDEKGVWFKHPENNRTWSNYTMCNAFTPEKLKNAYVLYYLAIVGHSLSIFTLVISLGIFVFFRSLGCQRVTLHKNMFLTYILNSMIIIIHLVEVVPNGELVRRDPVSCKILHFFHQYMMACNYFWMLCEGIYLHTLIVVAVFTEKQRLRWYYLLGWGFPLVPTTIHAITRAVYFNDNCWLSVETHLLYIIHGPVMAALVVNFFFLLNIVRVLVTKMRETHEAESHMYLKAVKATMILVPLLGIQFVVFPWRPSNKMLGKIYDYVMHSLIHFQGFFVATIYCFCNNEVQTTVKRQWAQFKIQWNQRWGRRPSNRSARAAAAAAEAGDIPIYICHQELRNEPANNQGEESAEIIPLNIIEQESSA
T1 sequence (looked up) 2: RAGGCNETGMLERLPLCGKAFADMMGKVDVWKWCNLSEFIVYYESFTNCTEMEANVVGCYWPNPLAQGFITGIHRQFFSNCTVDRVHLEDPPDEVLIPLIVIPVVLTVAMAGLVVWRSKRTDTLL

[2] = molecular target: T2, human calcitonin receptor (a) (human, UniProt P30988 25-474); assay: cell-based or functional assay
T2 sequence (looked up): T1 sequence (looked up) 1

hAmyR3 potency, EC50 (pM); CRE-luciferase reporter in BHK cells [1]: 1.05 pM
hCalcR potency, EC50 (pM); CRE-luciferase reporter in BHK cells [2]: 1.41 pM
B1: N^1-[(4S)-4-carboxy-4-(19-carboxynonadecanoylamino)butanoyl]-[Ala1,Ser2,His3,Leu4,Ser5,Ala7,Gln8,Ala10,Glu14,His17,Asp21,Pro22,Pro27,Asp31, … (peptide)
peptide: {C20 diacid-γGlu}-ASHLSTAQTARLAEFLHHSSDPFGAIPSSTDVGPDTP-NH2
SMILES: CC[C@H](C)[C@H](NC(=O)[C@H](C)NC(=O)CNC(=O)[C@H](Cc1ccccc1)NC(=O)[C@@H]1CCCN1C(=O)[C@H](CC(=O)O)NC(=O)[C@H](CO)NC(=O)[C@H](CO)NC(=O)[C@H](Cc1c[nH]cn1)NC(=O)[C@H](Cc1c[nH]cn1)NC(=O)[C@H](CC(C)C)NC(=O)[C@H](Cc1ccccc1)NC(=O)[C@H](CCC(=O)O)NC(=O)[C@H](C)NC(=O)[C@H](CC(C)C)NC(=O)[C@H](CCCNC(=N)N)NC(=O)[C@H](C)NC(=O)[C@@H](NC(=O)[C@H](CCC(N)=O)NC(=O)[C@H](C)NC(=O)[C@@H](NC(=O)[C@H](CO)NC(=O)[C@H](CC(C)C)NC(=O)[C@H](Cc1c[nH]cn1)NC(=O)[C@H](CO)NC(=O)[C@H](C)NC(=O)CC[C@H](NC(=O)CCCCCCCCCCCCCCCCCCC(=O)O)C(=O)O)[C@@H](C)O)[C@@H](C)O)C(=O)N1CCC[C@H]1C(=O)N[C@@H](CO)C(=O)N[C@@H](CO)C(=O)N[C@H](C(=O)N[C@@H](CC(=O)O)C(=O)N[C@H](C(=O)NCC(=O)N1CCC[C@H]1C(=O)N[C@@H](CC(=O)O)C(=O)N[C@H](C(=O)N1CCC[C@H]1C(N)=O)[C@@H](C)O)C(C)C)[C@@H](C)O

hAmyR3 potency, EC50 (pM); CRE-luciferase reporter in BHK cells [1]: 1.38 pM
hCalcR potency, EC50 (pM); CRE-luciferase reporter in BHK cells [2]: 1.29 pM
B2: N^1-acetyl,N{Epsilon-25}-[(4S)-4-carboxy-4-(17-carboxyheptadecanoylamino)butanoyl]-[Ala1,Ser2,His3,Leu4,Ser5,Ala7,Gln8,Ala10,Glu14,His17,Asp21,Pro22,Lys25,Pro27 … (peptide)
peptide: Ac-ASHLSTAQTARLAEFLHHSSDPFGK([γGlu-C18 diacid])IPSSTDVGPDTP-NH2
SMILES: CC[C@H](C)[C@H](NC(=O)[C@H](CCCCNC(=O)CC[C@H](NC(=O)CCCCCCCCCCCCCCCCC(=O)O)C(=O)O)NC(=O)CNC(=O)[C@H](Cc1ccccc1)NC(=O)[C@@H]1CCCN1C(=O)[C@H](CC(=O)O)NC(=O)[C@H](CO)NC(=O)[C@H](CO)NC(=O)[C@H](Cc1c[nH]cn1)NC(=O)[C@H](Cc1c[nH]cn1)NC(=O)[C@H](CC(C)C)NC(=O)[C@H](Cc1ccccc1)NC(=O)[C@H](CCC(=O)O)NC(=O)[C@H](C)NC(=O)[C@H](CC(C)C)NC(=O)[C@H](CCCNC(=N)N)NC(=O)[C@H](C)NC(=O)[C@@H](NC(=O)[C@H](CCC(N)=O)NC(=O)[C@H](C)NC(=O)[C@@H](NC(=O)[C@H](CO)NC(=O)[C@H](CC(C)C)NC(=O)[C@H](Cc1c[nH]cn1)NC(=O)[C@H](CO)NC(=O)[C@H](C)NC(C)=O)[C@@H](C)O)[C@@H](C)O)C(=O)N1CCC[C@H]1C(=O)N[C@@H](CO)C(=O)N[C@@H](CO)C(=O)N[C@H](C(=O)N[C@@H](CC(=O)O)C(=O)N[C@H](C(=O)NCC(=O)N1CCC[C@H]1C(=O)N[C@@H](CC(=O)O)C(=O)N[C@H](C(=O)N1CCC[C@H]1C(N)=O)[C@@H](C)O)C(C)C)[C@@H](C)O

hAmyR3 potency, EC50 (pM); CRE-luciferase reporter in BHK cells [1]: 2.11 pM
hCalcR potency, EC50 (pM); CRE-luciferase reporter in BHK cells [2]: 2.78 pM
B3: N^1-[(4S)-4-carboxy-4-(17-carboxyheptadecanoylamino)butanoyl]-[Ala1,Ser2,His3,Leu4,Ser5,Ala7,Gln8,Ala10,Glu14, His17, Pro25, Pro28, … (peptide)
peptide: {C18 diacid-γGlu}-ASHLSTAQTARLAEFLHHFGPILPPTDVGSETY-NH2
SMILES: CC[C@H](C)[C@H](NC(=O)[C@@H]1CCCN1C(=O)CNC(=O)[C@H](Cc1ccccc1)NC(=O)[C@H](Cc1c[nH]cn1)NC(=O)[C@H](Cc1c[nH]cn1)NC(=O)[C@H](CC(C)C)NC(=O)[C@H](Cc1ccccc1)NC(=O)[C@H](CCC(=O)O)NC(=O)[C@H](C)NC(=O)[C@H](CC(C)C)NC(=O)[C@H](CCCNC(=N)N)NC(=O)[C@H](C)NC(=O)[C@@H](NC(=O)[C@H](CCC(N)=O)NC(=O)[C@H](C)NC(=O)[C@@H](NC(=O)[C@H](CO)NC(=O)[C@H](CC(C)C)NC(=O)[C@H](Cc1c[nH]cn1)NC(=O)[C@H](CO)NC(=O)[C@H](C)NC(=O)CC[C@H](NC(=O)CCCCCCCCCCCCCCCCC(=O)O)C(=O)O)[C@@H](C)O)[C@@H](C)O)C(=O)N[C@@H](CC(C)C)C(=O)N1CCC[C@H]1C(=O)N1CCC[C@H]1C(=O)N[C@H](C(=O)N[C@@H](CC(=O)O)C(=O)N[C@H](C(=O)NCC(=O)N[C@@H](CO)C(=O)N[C@@H](CCC(=O)O)C(=O)N[C@H](C(=O)N[C@@H](Cc1ccc(O)cc1)C(N)=O)[C@@H](C)O)C(C)C)[C@@H](C)O

hAmyR3 potency, EC50 (pM); CRE-luciferase reporter in BHK cells [1]: 1.16 pM
hCalcR potency, EC50 (pM); CRE-luciferase reporter in BHK cells [2]: 1.16 pM
B4: N^1-acetyl,N{Epsilon-25}-[(4S)-4-carboxy-4-(17-carboxyheptadecanoylamino)butanoyl]-[Ala1,Ser2,His3,Leu4,Ser5,Ala7,Gln8,Ala10,Glu14,His17,Asp21,Lys25,Pro28,Pro29 … (peptide)
peptide: Ac-ASHLSTAQTARLAEFLHHSSDNFGK([γGlu-C18 diacid])ILPPTDVGSNTP-NH2
SMILES: CC[C@H](C)[C@H](NC(=O)[C@H](CCCCNC(=O)CC[C@H](NC(=O)CCCCCCCCCCCCCCCCC(=O)O)C(=O)O)NC(=O)CNC(=O)[C@H](Cc1ccccc1)NC(=O)[C@H](CC(N)=O)NC(=O)[C@H](CC(=O)O)NC(=O)[C@H](CO)NC(=O)[C@H](CO)NC(=O)[C@H](Cc1c[nH]cn1)NC(=O)[C@H](Cc1c[nH]cn1)NC(=O)[C@H](CC(C)C)NC(=O)[C@H](Cc1ccccc1)NC(=O)[C@H](CCC(=O)O)NC(=O)[C@H](C)NC(=O)[C@H](CC(C)C)NC(=O)[C@H](CCCNC(=N)N)NC(=O)[C@H](C)NC(=O)[C@@H](NC(=O)[C@H](CCC(N)=O)NC(=O)[C@H](C)NC(=O)[C@@H](NC(=O)[C@H](CO)NC(=O)[C@H](CC(C)C)NC(=O)[C@H](Cc1c[nH]cn1)NC(=O)[C@H](CO)NC(=O)[C@H](C)NC(C)=O)[C@@H](C)O)[C@@H](C)O)C(=O)N[C@@H](CC(C)C)C(=O)N1CCC[C@H]1C(=O)N1CCC[C@H]1C(=O)N[C@H](C(=O)N[C@@H](CC(=O)O)C(=O)N[C@H](C(=O)NCC(=O)N[C@@H](CO)C(=O)N[C@@H](CC(N)=O)C(=O)N[C@H](C(=O)N1CCC[C@H]1C(N)=O)[C@@H](C)O)C(C)C)[C@@H](C)O

hAmyR3 potency, EC50 (pM); CRE-luciferase reporter in BHK cells [1]: 1.97 pM
hCalcR potency, EC50 (pM); CRE-luciferase reporter in BHK cells [2]: 3.15 pM
B5: N^1-[(4S)-4-carboxy-4-(17-carboxyheptadecanoylamino)butanoyl]-[Ala1,Ser2,His3,Leu4,Ser5,Ala7,Gln8,Ala10,Glu14,His17,Asp21,Pro25,Pro28,Pro29,Asp31]-human amylin (peptide)
peptide: {C18 diacid-γGlu}-ASHLSTAQTARLAEFLHHSSDNFGPILPPTDVGSNTY-NH2
SMILES: CC[C@H](C)[C@H](NC(=O)[C@@H]1CCCN1C(=O)CNC(=O)[C@H](Cc1ccccc1)NC(=O)[C@H](CC(N)=O)NC(=O)[C@H](CC(=O)O)NC(=O)[C@H](CO)NC(=O)[C@H](CO)NC(=O)[C@H](Cc1c[nH]cn1)NC(=O)[C@H](Cc1c[nH]cn1)NC(=O)[C@H](CC(C)C)NC(=O)[C@H](Cc1ccccc1)NC(=O)[C@H](CCC(=O)O)NC(=O)[C@H](C)NC(=O)[C@H](CC(C)C)NC(=O)[C@H](CCCNC(=N)N)NC(=O)[C@H](C)NC(=O)[C@@H](NC(=O)[C@H](CCC(N)=O)NC(=O)[C@H](C)NC(=O)[C@@H](NC(=O)[C@H](CO)NC(=O)[C@H](CC(C)C)NC(=O)[C@H](Cc1c[nH]cn1)NC(=O)[C@H](CO)NC(=O)[C@H](C)NC(=O)CC[C@H](NC(=O)CCCCCCCCCCCCCCCCC(=O)O)C(=O)O)[C@@H](C)O)[C@@H](C)O)C(=O)N[C@@H](CC(C)C)C(=O)N1CCC[C@H]1C(=O)N1CCC[C@H]1C(=O)N[C@H](C(=O)N[C@@H](CC(=O)O)C(=O)N[C@H](C(=O)NCC(=O)N[C@@H](CO)C(=O)N[C@@H](CC(N)=O)C(=O)N[C@H](C(=O)N[C@@H](Cc1ccc(O)cc1)C(N)=O)[C@@H](C)O)C(C)C)[C@@H](C)O

hAmyR3 potency, EC50 (pM); CRE-luciferase reporter in BHK cells [1]: 1.06 pM
hCalcR potency, EC50 (pM); CRE-luciferase reporter in BHK cells [2]: 1.76 pM
B6: N^1-[(4S)-4-carboxy-4-(17-carboxyheptadecanoylamino)butanoyl]-[Ala1,Ser2,His3,Leu4,Ser5,Ala7,Gln8,Ala10,Glu14,His17,Pro25,Pro28,Pro29,Asp31,Glu35,Pro37],des-(19 … (peptide)
peptide: {C18 diacid-γGlu}-ASHLSTAQTARLAEFLHHFGPILPPTDVGSETP-NH2
SMILES: CC[C@H](C)[C@H](NC(=O)[C@@H]1CCCN1C(=O)CNC(=O)[C@H](Cc1ccccc1)NC(=O)[C@H](Cc1c[nH]cn1)NC(=O)[C@H](Cc1c[nH]cn1)NC(=O)[C@H](CC(C)C)NC(=O)[C@H](Cc1ccccc1)NC(=O)[C@H](CCC(=O)O)NC(=O)[C@H](C)NC(=O)[C@H](CC(C)C)NC(=O)[C@H](CCCNC(=N)N)NC(=O)[C@H](C)NC(=O)[C@@H](NC(=O)[C@H](CCC(N)=O)NC(=O)[C@H](C)NC(=O)[C@@H](NC(=O)[C@H](CO)NC(=O)[C@H](CC(C)C)NC(=O)[C@H](Cc1c[nH]cn1)NC(=O)[C@H](CO)NC(=O)[C@H](C)NC(=O)CC[C@H](NC(=O)CCCCCCCCCCCCCCCCC(=O)O)C(=O)O)[C@@H](C)O)[C@@H](C)O)C(=O)N[C@@H](CC(C)C)C(=O)N1CCC[C@H]1C(=O)N1CCC[C@H]1C(=O)N[C@H](C(=O)N[C@@H](CC(=O)O)C(=O)N[C@H](C(=O)NCC(=O)N[C@@H](CO)C(=O)N[C@@H](CCC(=O)O)C(=O)N[C@H](C(=O)N1CCC[C@H]1C(N)=O)[C@@H](C)O)C(C)C)[C@@H](C)O
